From PMC4858972, “Structural and Biochemical Characterization of the Early and Late Enzymes in the Lignin β-Aryl Ether Cleavage Pathway from Sphingobium sp. SYK-6” (The Journal of Biological Chemistry, 2016) come the findings set out here.

Substrate in series [1]: COc1cc([C@H](O)[C@@H](CO)Oc2ccccc2OC)ccc1O
Nature of the series: purified protein. The format is biochemical, Sphingobium sp. SYK-6. Particulars: 5 mM NAD+, pH 9.0, 30 °C.

Substrate in series [2]: COc1cc([C@H](O)[C@H](CO)Oc2ccccc2OC)ccc1O
As to the kind of experiment: purified protein. Particulars: 5 mM NAD+, pH 9.0, 30 °C. The format is biochemical, Sphingobium sp. SYK-6.

B1: LigL (Sphingobium sp. SYK-6) (protein)
chain: MDIAGTTAFITGGASGIGFGIAQRLLANGARLVLADIRQDHLDEARQFFEERQQGRNVHTIRLDVSDRAQMAEAARECEAVMGGPDILINNAGIDPSGPFKDATYQDWDYGLAINLMGPINGIMAFTPGMRARGRGGHIVNTASLAGLTPMPSFMAIYATAKAAVITLTETIRDSMAEDNIGVTVLMPGPIKSRIHESGQNRPERFRAGSGLAETEQQLAKRVVADNWMEPTEVGDMIVDAIVHNKLYVSTHGNWRETCEARFQALLDSMPEARPFDFGASLAVPKEEA
notes: synthetic gene in pCPD, C-terminal V. cholerae MARTX cysteine protease domain (CPD)-His tag self-cleaved after a Leu, expressed in E. coli (NEB Express), biological dimer
As to B1, in the series “purified protein [1]”, the Km (as a rule, the concentration of substrate that gives half-maximal velocity) stood at 20.3 ± 3.2 µM; the Vmax (as a rule, the top rate of the reaction or transport when substrate is in excess) was 21.8 µmol/min/mg; the kcat – broadly, the number of substrate molecules converted per active site and unit of time at saturation – is 4.9 ± 0.3 s⁻¹; the catalytic efficiency (kcat/Km) (commonly the turnover number divided by the Michaelis constant) turned out to be 240000 ± 41000 M⁻¹ s⁻¹. Besides, in the series “purified protein [2]”, the Km was determined as 10.9 ± 0.8 µM, the Vmax amounted to 33.7 µmol/min/mg, the turnover number (kcat) was determined as 7.5 ± 0.1 s⁻¹ and the kcat/Km turned out to be 688000 ± 53000 M⁻¹ s⁻¹.
